# Experimental data: publication PMC11476691, “ATM1, an essential conserved transporter in Apicomplexa, bridges mitochondrial and cytosolic [Fe-S] biogenesis” (PLOS Pathogens, 2024)
# T1: PfATM1-CTD (Plasmodium falciparum, UniProt Q8IDH9)
# T1 construct: gene ABCB6
# T1 sequence (Q8IDH9 807-1049): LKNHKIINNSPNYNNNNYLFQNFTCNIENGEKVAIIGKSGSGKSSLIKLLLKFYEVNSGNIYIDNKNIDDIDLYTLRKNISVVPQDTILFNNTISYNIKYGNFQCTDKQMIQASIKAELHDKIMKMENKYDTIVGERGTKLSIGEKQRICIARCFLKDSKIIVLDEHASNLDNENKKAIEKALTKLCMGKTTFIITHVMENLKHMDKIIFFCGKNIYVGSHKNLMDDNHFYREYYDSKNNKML
# T2: PfIscU (Plasmodium falciparum, UniProt Q8IKT4)
# T2 construct: gene IscU; GST fusion from pGEX-KG in E. coli BL21(DE3), GST removed by thrombin
# T2 sequence (Q8IKT4 1-162): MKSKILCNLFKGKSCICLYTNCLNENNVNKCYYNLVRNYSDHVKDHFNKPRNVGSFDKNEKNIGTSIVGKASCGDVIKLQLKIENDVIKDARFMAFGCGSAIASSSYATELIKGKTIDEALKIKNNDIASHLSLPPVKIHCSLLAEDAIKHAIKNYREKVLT
# T3: PfIscA2 (Plasmodium falciparum, UniProt O97297)
# T3 construct: gene IscA2; GST fusion from pGEX-KG in E. coli C43, GST removed by thrombin
# T3 sequence (O97297 1-404): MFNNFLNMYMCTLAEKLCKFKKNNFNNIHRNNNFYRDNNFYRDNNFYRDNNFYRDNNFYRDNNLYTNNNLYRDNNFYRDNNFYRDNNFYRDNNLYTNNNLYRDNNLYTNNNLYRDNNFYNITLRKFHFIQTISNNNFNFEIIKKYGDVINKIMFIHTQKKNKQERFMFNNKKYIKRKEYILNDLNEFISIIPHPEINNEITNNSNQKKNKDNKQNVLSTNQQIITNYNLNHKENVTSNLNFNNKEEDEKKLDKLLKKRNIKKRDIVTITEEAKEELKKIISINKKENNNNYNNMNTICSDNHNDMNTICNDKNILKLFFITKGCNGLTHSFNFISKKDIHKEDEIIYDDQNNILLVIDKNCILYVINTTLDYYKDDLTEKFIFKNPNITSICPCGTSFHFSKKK
# B1: PfATM1 (PfABCB6 / PfMDR6) (Plasmodium falciparum 3D7) (protein)
# chain: RISDEFYSSFLYHSYIENLKSTKEYVYFIYLQDIYYNINIFKNKGRLYISNNGLCNDKLKDNNNNNNINSNNFGNSYNAYTKKKSFYHSFNDLNEAKEIRKKRKNEKSEKNIVEYLLCNIINPNENYHIQNIYNHNLNNNVSIEIHKKNDSVMYHYNNEKKTKTSKMTTDIKLKQINNVYIKYVPYKNKIITLACPNKYYPTLYRYFSSHTNKKEDAEENDKNKNININNVDNRYKEDFMYGCENKNDSEKHKKTTNNNFGDEFEKLKVKELDKILNKLEMLYDNKNNKMNINVKILGYIFKNFLLKNKELKRKIFCSLFFLLCSKMAIIYTPILLSTFIENVNLQKSLSNNIDIYSTNKSSVLLLCAYVFSRVLSSTMNELRNSVFSNISQKISTFVSKLFFYKIHNLNLTYILSKKNGELSFIFNRGCKSITNLLNVMVFQIIPIIIEFILYLYILTYKIHYTVSLVTCFNMFLYVLFTTLITKRRTIIRKHMNKAEQNTFNIFLDSIQNVEQVKYYTNEIHELKKFIKEQKKYEKEAINVQKSLSFLNFGQQIILNTNLFLCMYLTYLNIANDIFPFSYLILVNTLLFQLAMPLNMFGTIYRETKLSLVDIESMIKILVKKIKSPDYGNQMLIKNGNIKFENVYFKYPLNEDINGLEQNYQAKEKDPNIINNINNINNINNINNINNINSINNIYTFESNVKNISSTNMITSSINKLKKWYLDKVKDNKKNVQYNNNDVKKTNPNITKNLNKEIKENINTHLKNHKIINNSPNYNNNNYLFQNFTCNIENGEKVAIIGKSGSGKSSLIKLLLKFYEVNSGNIYIDNKNIDDIDLYTLRKNISVVPQDTILFNNTISYNIKYGNFQCTDKQMIQASIKAELHDKIMKMENKYDTIVGERGTKLSIGEKQRICIARCFLKDSKIIVLDEHASNLDNENKKAIEKALTKLCMGKTTFIITHVMENLKHMDKIIFFCGKNIYVGSHKNLMDDNHFYREYYDSKNNKML
# notes: predicted mature form aa 43-1049 (MTS removed), E. coli YbeL hydrophilic domain (beta) and 6xHis fused at both N- and C-termini (pET28a beta-PfATM1-beta), E. coli C43, 152 kDa monomer, homodimer
# B2: recombinant PfATM1 (6X-His tagged β-PfATM1-β) (natural protein, P. falciparum, UniProt Q8IDH9 43-1049, looked up)
# chain: B1 chain
# notes: P. falciparum ATM1 (PfATM1, ABCB6, MDR6), PF3D7_1352100, predicted mature form, aa 43-1049; Monomer 152 kDa, dimer about 300 kDa with the fusion domains; also called full-length PfATM1; PfATM1 dimer; source: E. coli C43, purified from membranes (DDM and Triton X-114, Ni-NTA, SEC Superdex S-200); not shown: E. coli YbeL hydrophilic fusion domain (β), N-terminal, kept; E. coli YbeL hydrophilic …
# B3: PfATM1-CTD (domain or fragment, P. falciparum, UniProt Q8IDH9 807-1049, looked up)
# chain: T1 sequence (Q8IDH9 807-1049)
# notes: P. falciparum ATM1 (PfATM1, ABCB6, MDR6), PF3D7_1352100, C-terminal ATPase domain, aa 807-1049; Cloned in pET23a; About 30 kDa, with a dimeric form of about 60 kDa on SDS-PAGE; also called C-terminal ATPase domain of PfATM1; source: E. coli BL21 (DE3), purified (Ni-NTA, SEC Superdex S-75)
# Legend:
# PfATM1-CTD = target: T1, PfATM1-CTD; assay: UV-VIS spectroscopy; assay type: binding; conditions: as purified; lower intensity than full length
# PfIscU = target: T2, PfIscU; assay: chemical reconstitution, cluster donor assay, UV-VIS; assay type: binding; conditions: anaerobic, 25 mM Tris-Cl pH 7.5, 100 mM NaCl
# PfIscA2 = target: T3, PfIscA2; assay: as above; assay type: binding; conditions: anaerobic, 25 mM Tris-Cl pH 7.5, 100 mM NaCl
# [1] = substrate: Nc1ncnc2c1ncn2[C@@H]1O[C@H](COP(=O)(O)OP(=O)(O)OP(=O)(O)O)[C@@H](O)[C@H]1O; assay: ATPase, phosphate release (EnzChek MESG/PNP); assay type: biochemical, Plasmodium falciparum; conditions: 500 nM holo-PfATM1, increasing ATP, no GSSG
# [2] = target: the molecule itself; assay: SEC + native gel or EMSA; Superdex S-200; fractions electrophoresed on 6% native-PAGE; dimer to monomers
# [3] = target: the molecule itself; assay: SDS-PAGE of the purified protein; purified PfATM1-CTD on Coomassie-stained SDS-PAGE and western blot with anti-6XHis Ab; dimer of about 60 kDa beside the monomer of about 30 kDa; broken with DTT and urea
molecule,measurement,setting,value
[S]12[Fe]3[S]4[Fe]1[S]1[Fe]2[S]3[Fe]41 [[4Fe-4S]],UV-VIS spectroscopy,PfATM1-CTD,A lower intensity [4Fe-4S] peak was also observed in PfATM1-CTD
same,"chemical reconstitution, cluster donor assay, UV-VIS",PfIscU,Reconstituted PfIscU and PfIscA2 carrying [4Fe-4S] were then used as cluster donors
same,"chemical reconstitution, cluster donor assay, UV-VIS",PfIscA2,Reconstituted PfIscU and PfIscA2 carrying [4Fe-4S] were then used as cluster donors
B1,Km,[1],178.9 ± 34.86 µM
same,kcat,[1],0.129 ± 0.00767 s⁻¹
B2,stoichiometry N,[2],2
B3,stoichiometry N,[3],2
